In data set [1] the test system is Saccharomyces cerevisiae. As to the kind of experiment: protein stability index of tFT-peptide fusion (C-terminal peptide) (PSI (0-1 scale)); higher = more stable (slower turnover). Conditions: genetic background: wild type; temperature: 30 C.
Data set [2] deals with Saccharomyces cerevisiae. Described as above. The procedure:
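MPS profiling in S. cerevisiae of the tFT-X12 degron library: putative degron peptides plus stable controls, 12 aa, fused to the C-terminus of a sfGFP-mCherry timer. Cells are FACS-sorted into 8 mCherry/sfGFP bins and deep-sequenced. PSI runs from 0 (unstable) to 1 (stable). Backgrounds are wild type, das1Δ and doa10Δ at 30 °C, and wild type, das1Δ, cdc34-1 and cdc53-1 at 37 °C; 2-3 technical replicates each.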

[3] abbreviates: genetic background: cdc34-1, temperature: 37 C.
Where [4] appears, read: genetic background: cdc53-1, temperature: 37 C.
Setting [5] is: genetic background: das1 deletion, temperature: 30 C.
Setting [6] is: genetic background: das1 deletion, temperature: 37 C.
The mark [7] stands for this setting: genetic background: doa10 deletion, temperature: 30 C.
The mark [8] stands for this setting: genetic background: wild type, temperature: 30 C.
Setting [9] is: genetic background: wild type, temperature: 37 C.

± gives the standard deviation of the averaged measurements.
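Also: PSI is a weighted mean of sequencing reads over stability bins, variants kept only with over 10 reads, mCherry proximal and sfGFP distal, peptide attached via GGGS linker.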

ESCVRSRRVLLC: the protein stability index is 0.221 ± 0.026 with Saccharomyces cerevisiae [1]; 0.564 ± 0.063 with Saccharomyces cerevisiae [2] (setting [3]); 0.71 ± 0.032 in the data set on Saccharomyces cerevisiae [2] (setting [4]); 0.621 ± 0.013 in the data set with Saccharomyces cerevisiae [2] (setting [5]); 0.73 ± 0.027 in the data set on Saccharomyces cerevisiae [2] (setting [6]); 0.129 ± 0.044 with Saccharomyces cerevisiae [2] (setting [7]). The figures for the protein stability index in the data set on Saccharomyces cerevisiae [2] (setting [8]) and with Saccharomyces cerevisiae [2] (setting [9]) were 0.127 ± 0.017 and 0.196 ± 0.0075, respectively.

On to EVPVIGVLRSLL, for which the protein stability index in the data set on Saccharomyces cerevisiae [1] turned out to be 0.743 ± 0.043; in the data set with Saccharomyces cerevisiae [2] (setting [3]), 0.9376 ± 0.009; in the data set on Saccharomyces cerevisiae [2] (setting [4]), 0.918 ± 0.014; in the data set on Saccharomyces cerevisiae [2] (setting [5]) it was 0.804 ± 0.018; in the data set with Saccharomyces cerevisiae [2] (setting [6]), 0.8784 ± 0.0044; with Saccharomyces cerevisiae [2] (setting [7]) it was 0.773 ± 0.027. In addition, the figures for the protein stability index with Saccharomyces cerevisiae [2] (setting [8]) and in the data set with Saccharomyces cerevisiae [2] (setting [9]) were 0.78 ± 0.023 and 0.847 ± 0.017, respectively.

With EVSIISECKVAS, the protein stability index in the data set on Saccharomyces cerevisiae [1] turned out to be 0.258 ± 0.011; in the data set with Saccharomyces cerevisiae [2] (setting [3]) it was 0.5081 ± 0.0025; in the data set with Saccharomyces cerevisiae [2] (setting [4]) it was 0.639 ± 0.059; in the data set with Saccharomyces cerevisiae [2] (setting [5]) it was 0.44 ± 0.019; in the data set on Saccharomyces cerevisiae [2] (setting [6]) it was 0.585 ± 0.026; in the data set with Saccharomyces cerevisiae [2] (setting [7]), 0.145 ± 0.013. For the same sequence, the protein stability index was found to be 0.175 ± 0.014 with Saccharomyces cerevisiae [2] (setting [8]) and 0.281 ± 0.015 in the data set with Saccharomyces cerevisiae [2] (setting [9]).

FALAYFFVLKSF: the protein stability index stood at 0.172 ± 0.0026 in the data set on Saccharomyces cerevisiae [1]; 0.228 ± 0.019 in the data set on Saccharomyces cerevisiae [2] (setting [3]); 0.246 ± 0.057 in the data set on Saccharomyces cerevisiae [2] (setting [4]); 0.243 ± 0.045 with Saccharomyces cerevisiae [2] (setting [5]); 0.423 ± 0.0084 with Saccharomyces cerevisiae [2] (setting [6]); 0.0908 ± 0.011 in the data set with Saccharomyces cerevisiae [2] (setting [7]). Moreover, the protein stability index came out at 0.0862 ± 0.02 with Saccharomyces cerevisiae [2] (setting [8]) and 0.1132 ± 0.001 with Saccharomyces cerevisiae [2] (setting [9]).

Consider FARYLRSMYILF, for which the protein stability index in the data set with Saccharomyces cerevisiae [1] was 0.409 ± 0.029; in the data set with Saccharomyces cerevisiae [2] (setting [3]), 0.546 ± 0.026; with Saccharomyces cerevisiae [2] (setting [4]), 0.54989 ± 0.0003; in the data set with Saccharomyces cerevisiae [2] (setting [5]) it was 0.5426 ± 0.0032; in the data set with Saccharomyces cerevisiae [2] (setting [6]), 0.6721 ± 0.0049; in the data set on Saccharomyces cerevisiae [2] (setting [7]) it was 0.369 ± 0.014. The protein stability index amounted to 0.343 ± 0.019 in the data set on Saccharomyces cerevisiae [2] (setting [8]) and 0.462 ± 0.0051 in the data set on Saccharomyces cerevisiae [2] (setting [9]).

For FAVLWFLYWCSW, the protein stability index with Saccharomyces cerevisiae [1] amounted to 0.348 ± 0.063; with Saccharomyces cerevisiae [2] (setting [3]) it was 0.347 ± 0.0065; in the data set on Saccharomyces cerevisiae [2] (setting [4]) it was 0.376 ± 0.019; with Saccharomyces cerevisiae [2] (setting [5]), 0.282 ± 0.026; in the data set with Saccharomyces cerevisiae [2] (setting [6]), 0.422 ± 0.013; in the data set on Saccharomyces cerevisiae [2] (setting [7]) it was 0.245 ± 0.025. Further, the protein stability index in the data set on Saccharomyces cerevisiae [2] (setting [8]) stood at 0.261 ± 0.044; in the data set on Saccharomyces cerevisiae [2] (setting [9]), 0.387 ± 0.0054.

As for FCCSFFLCVCFV, the protein stability index in the data set with Saccharomyces cerevisiae [1] was 0.392 ± 0.0044; in the data set with Saccharomyces cerevisiae [2] (setting [3]), 0.349 ± 0.036; in the data set with Saccharomyces cerevisiae [2] (setting [4]) it was 0.371 ± 0.0043; with Saccharomyces cerevisiae [2] (setting [5]), 0.309 ± 0.019; with Saccharomyces cerevisiae [2] (setting [6]), 0.409 ± 0.007; in the data set on Saccharomyces cerevisiae [2] (setting [7]) it was 0.29 ± 0.017. In addition, the protein stability index in the data set with Saccharomyces cerevisiae [2] (setting [8]) was determined as 0.276 ± 0.034; with Saccharomyces cerevisiae [2] (setting [9]), 0.348 ± 0.013.

With FCLSPILLLRFL, the protein stability index in the data set on Saccharomyces cerevisiae [1] came to 0.213 ± 0.034; in the data set with Saccharomyces cerevisiae [2] (setting [3]), 0.268 ± 0.004; in the data set on Saccharomyces cerevisiae [2] (setting [4]), 0.261 ± 0.012; in the data set on Saccharomyces cerevisiae [2] (setting [5]), 0.355 ± 0.024; with Saccharomyces cerevisiae [2] (setting [6]), 0.439 ± 0.0047; in the data set on Saccharomyces cerevisiae [2] (setting [7]) it was 0.219 ± 0.022. For the same sequence, the figures for the protein stability index in the data set on Saccharomyces cerevisiae [2] (setting [8]) and with Saccharomyces cerevisiae [2] (setting [9]) were 0.174 ± 0.024 and 0.225 ± 0.012, respectively.

Regarding FCRPCCLIVFVV, the protein stability index came out at 0.184 ± 0.037 with Saccharomyces cerevisiae [1]; 0.236 ± 0.026 in the data set with Saccharomyces cerevisiae [2] (setting [3]); 0.295 ± 0.029 in the data set on Saccharomyces cerevisiae [2] (setting [4]); 0.253 ± 0.036 in the data set with Saccharomyces cerevisiae [2] (setting [5]); 0.467 ± 0.0059 in the data set on Saccharomyces cerevisiae [2] (setting [6]); 0.122 ± 0.0099 in the data set with Saccharomyces cerevisiae [2] (setting [7]). The results for the protein stability index in the data set with Saccharomyces cerevisiae [2] (setting [8]) and in the data set on Saccharomyces cerevisiae [2] (setting [9]) were 0.128 ± 0.019 and 0.126 ± 0.019, respectively.

Regarding FFCRARHRLYVA, the protein stability index in the data set on Saccharomyces cerevisiae [1] was 0.233 ± 0.023; in the data set on Saccharomyces cerevisiae [2] (setting [3]), 0.537 ± 0.044; with Saccharomyces cerevisiae [2] (setting [4]) it was 0.626 ± 0.059; with Saccharomyces cerevisiae [2] (setting [5]) it was 0.626 ± 0.012; with Saccharomyces cerevisiae [2] (setting [6]) it was 0.675 ± 0.0094; in the data set on Saccharomyces cerevisiae [2] (setting [7]), 0.0986 ± 0.0092. Also, the figures for the protein stability index with Saccharomyces cerevisiae [2] (setting [8]) and in the data set on Saccharomyces cerevisiae [2] (setting [9]) were 0.105 ± 0.0095 and 0.152 ± 0.061, respectively.

Regarding FFFFLFRSIFLS, the protein stability index in the data set on Saccharomyces cerevisiae [1] is 0.152 ± 0.0068; with Saccharomyces cerevisiae [2] (setting [3]), 0.146 ± 0.12; in the data set on Saccharomyces cerevisiae [2] (setting [4]), 0.124 ± 0.013; in the data set with Saccharomyces cerevisiae [2] (setting [5]) it was 0.293 ± 0.05; in the data set with Saccharomyces cerevisiae [2] (setting [6]) it was 0.394 ± 0.094; in the data set with Saccharomyces cerevisiae [2] (setting [7]) it was 0.179 ± 0.0022. Moreover, the protein stability index in the data set on Saccharomyces cerevisiae [2] (setting [8]) came to 0.118 ± 0.012; in the data set with Saccharomyces cerevisiae [2] (setting [9]), 0.138 ± 0.011.

Turning to FFFFSMLIFCAV, the protein stability index with Saccharomyces cerevisiae [1] was 0.191 ± 0.0034; with Saccharomyces cerevisiae [2] (setting [3]), 0.06041 ± 0.00022; in the data set with Saccharomyces cerevisiae [2] (setting [4]), 0.106 ± 0.025; in the data set on Saccharomyces cerevisiae [2] (setting [5]) it was 0.156 ± 0.016; in the data set with Saccharomyces cerevisiae [2] (setting [6]), 0.226 ± 0.013; in the data set with Saccharomyces cerevisiae [2] (setting [7]), 0.129 ± 0.01. Further, the results for the protein stability index in the data set on Saccharomyces cerevisiae [2] (setting [8]) and in the data set with Saccharomyces cerevisiae [2] (setting [9]) were 0.136 ± 0.0094 and 0.192 ± 0.0081, respectively.

Regarding FFFLLPRLFRCV, the protein stability index was 0.45 ± 0.017 with Saccharomyces cerevisiae [1]; 0.791 ± 0.053 in the data set on Saccharomyces cerevisiae [2] (setting [3]); 0.835 ± 0.012 in the data set on Saccharomyces cerevisiae [2] (setting [4]); 0.707 ± 0.03 in the data set with Saccharomyces cerevisiae [2] (setting [5]); 0.773 ± 0.011 in the data set on Saccharomyces cerevisiae [2] (setting [6]); 0.445 ± 0.018 in the data set on Saccharomyces cerevisiae [2] (setting [7]). The protein stability index with Saccharomyces cerevisiae [2] (setting [8]) came to 0.449 ± 0.012; in the data set with Saccharomyces cerevisiae [2] (setting [9]), 0.5611 ± 0.0017.

Regarding FFLFCWFVPRFS, the protein stability index with Saccharomyces cerevisiae [1] was 0.435 ± 0.018; in the data set on Saccharomyces cerevisiae [2] (setting [3]), 0.454 ± 0.0056; with Saccharomyces cerevisiae [2] (setting [4]), 0.512 ± 0.0079; in the data set on Saccharomyces cerevisiae [2] (setting [5]) it was 0.379 ± 0.027; with Saccharomyces cerevisiae [2] (setting [6]) it was 0.553 ± 0.012; in the data set with Saccharomyces cerevisiae [2] (setting [7]), 0.349 ± 0.014. The results for the protein stability index in the data set on Saccharomyces cerevisiae [2] (setting [8]) and in the data set with Saccharomyces cerevisiae [2] (setting [9]) were 0.351 ± 0.027 and 0.498 ± 0.016, respectively.

As to FFLLCFMMCVLL, the protein stability index came to 0.259 ± 0.053 in the data set on Saccharomyces cerevisiae [1]; 0.291 ± 0.015 in the data set on Saccharomyces cerevisiae [2] (setting [3]); 0.291 ± 0.014 in the data set with Saccharomyces cerevisiae [2] (setting [4]); 0.289 ± 0.043 in the data set on Saccharomyces cerevisiae [2] (setting [5]); 0.374 ± 0.025 in the data set with Saccharomyces cerevisiae [2] (setting [6]); 0.288 ± 0.01 in the data set on Saccharomyces cerevisiae [2] (setting [7]). For the same sequence, the protein stability index with Saccharomyces cerevisiae [2] (setting [8]) was found to be 0.219 ± 0.032; in the data set on Saccharomyces cerevisiae [2] (setting [9]), 0.348 ± 0.01.

The values are drawn from the supplement of paper PMC10724198.
